The text below walks through data of doi:10.1101/2022.04.14.488403 (bioRxiv, 2022).

The target of assay [1] is K5:I-E^k. As to the kind of experiment: biomembrane force probe.
Assay [2] deals with human CD3γε ECD (human, UniProt P09693;P07766, biotin (BirA) on the C-terminal biotinylation sequence). As to the kind of experiment: biomembrane force probe.
Assay [3] has as its target mouse CD3γε ECD (Mus musculus (Mouse)., UniProt P11942;P22646, biotin (BirA) on the C-terminal biotinylation sequence). As to the kind of experiment: micropipette adhesion frequency.

mouse CD3γε ECD, sequence (P11942 23-116, chain 1 of 2): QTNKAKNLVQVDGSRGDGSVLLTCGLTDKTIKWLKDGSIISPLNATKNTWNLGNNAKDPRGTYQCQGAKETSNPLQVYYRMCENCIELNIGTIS
mouse CD3γε ECD, sequence (P22646 23-108, chain 2 of 2): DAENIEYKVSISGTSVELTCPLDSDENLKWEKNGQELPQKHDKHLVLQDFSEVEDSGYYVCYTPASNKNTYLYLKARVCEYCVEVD
human CD3γε ECD, sequence (P09693 23-116, one chain of several): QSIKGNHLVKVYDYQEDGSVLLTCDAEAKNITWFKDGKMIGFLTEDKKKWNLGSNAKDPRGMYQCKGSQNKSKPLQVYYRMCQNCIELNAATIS

Consider “2B4 TCR, wild type, fully assembled on the surface of T hybridoma cells (from UniProt P01849 1-136)”, for which the peak bond lifetime (at 15 pN) in assay [1] is 1.6 s.

B1: human CD3δε ECD (complex)
chain 1: FKIPIEELEDRVFVNCNTSITWVEGTVGTLLSDITRLDLGKRILDPRGIYRCNGTDIYKDKESTVQVHYRMCQSCVELDPATVA
chain 2: DGNEEMGGITQTPYKVSISGTTVILTCPQYPGSEILWQHNDKNIGGDEDDKNIGSDEDHLSLKEFSELEQSGYYVCYPRGSKPEDANFYLYLRARVCENCMEMD
modifications: biotin (BirA) on the C-terminal biotinylation sequence
Consider B1, for which the binding result in assay [2] is reported as “binds”.

B2: 2C11 full-length mAb (anti-CD3ε, clone 145-2C11) (antibody, V domains shown)
VH: EVQLVESGGGLVQPGKSLKLSCEASGFTFSGYGMHWVRQAPGRGLESVAYITSSSINIKYADAVKGRFTVSRDNAKNLLFLQMNILKSEDTAMYYCARFDWDKNYWGQGTMVTVSS
VL: DIQMTQSPSSLPASLGDRVTINCQASQDISNYLNWYQQKPGKAPKLLIYYTNKLADGVPSRFSGSGSGRDSSFTISSLESEDIGSYYCQQYYNYPWTFGPGTKLEIK
Take B2: the binding result in assay [3] is “binds”.
